According to article PMC5117717 (2016):

Experiments:
RadA-ct = RadA-ct (Pyrococcus furiosus); assay: ITC
HumRadA33 = HumRadA33 (Pyrococcus furiosus, UniProt O74036 108-349, S167K | V168A | I169M | W170Y | N175G | I182L | R183L | D192S | P193G | D194S | …); assay: ITC

Ac-NLGTFMRADEYLKKRA-NH2 [RadA oligomerisation peptide] showed a Kd (RadA-ct) of 0.6 µM and a Kd (HumRadA33) of 13 µM.
